Reference: US20010018195

B1: purified recombinant active caspase-8 (catalytic subunit, Ser 217 to the C-terminus, His6-tagged) (protein)
chain: SESQTLDKVYQMKSKPRGYCLIINNHNFAKAREKVPKLHSIRDRNGTHLDAGALTTTFEELHFEIKPHDDCTVEQIYEILKIYQLMDHSNMDCFICCILSHGDKGIIYGTDGQEAPIYELTSQFTGLKCPSLAGKPKVFFIQACQGDNYQKGIPVETDSEEQPYLEMDLSSPQTRYIPDEADFLLGMATVNNCVSYRNPAEGTWYIQSLCQSLRERCPRGDDILTILTEVNYEVSNKDDKKNMGKQMPQPTFTLRKKLVFPSD
B2: purified recombinant caspase-6 (His6-tagged) (protein)
chain 1: AFYKREMFDPAEKYKMDHRRRGIALIFNHERFFWHLTLPERRGTCADRDNLTRRFSDLGFEVKCFNDLKAEELLLKIHEVSTVSHADADCFVCVFLSHGEGNHIYAYDAKIEIQTLTGLFKGDKCHSLVGKPKIFIIQACRGNQHDVPVIPLDVVD
chain 2: AASVYTLPAGADFLMCYSVAEGYYSHRETVNGSWYIQDLCEMLGKYGSSLEFTELLTLVNRKVSQRRVDFCKDPSAIGKKQVPCFASMLTKKLHFFPKSN
B3: purified recombinant caspase-1 (protein)
chain: NPAMPTSSGSEGNVKLCSLEEAQRIWKQKSAEIYPIMDKSSRTRLALIICNEEFDSIPRRTGAEVDITGMTMLLQNLGYSVDVKKNLTASDMTTELEAFAHRPEHKTSDSTFLVFMSHGIREGICGKKHSEQVPDILQLNAIFNMLNTKNCPSLKDKPKVIIIQACRGDSPGVVWFKDSVGVSGNLSLPTTEEFEDDAIKKAHIEKDFIAFCSSTPDNVSWRHPTMGSVFIGRLIEHMQEYACSCDVEEIFRKVRFSFEQPDGRAQMPTTERVTLTRCFYLFPGH
B4: purified recombinant active caspase-9 (His6-tagged) (protein)
chain: MDEADRRLLRRCRLRLVEELQVDQLWDALLSRELFRPHMIEDIQRAGSGSRRDQARQLIIDLETRGSQALPLFISCLEDTGQDMLASFLRTNRQAAKLSKPTLENLTPVVLRPEIRKPEVLRPETPRPVDIGSGGFGDVGALESLRGNADLAYILSMEPCGHCLIINNVNFCRESGLRTRTGSNIDCEKLRRRFSSLHFMVEVKGDLTAKKMVLALLELAQQDHGALDCCVVVILSHGCQASHLQFPGAVYGTDGCPVSVEKIVNIFNGTSCPSLGGKPKLFFIQACGGEQKDHGFEVASTSPEDESPGSNPEPDATPFQEGLRTFDQLDAISSLPTPSDIFVSYSTFPGFVSWRDPKSGSWYVETLDDIFEQWAHSEDLQSLLLRVANAVSVKGIYKQMPGCFNFLRKKLFFKTS

How the values were obtained:
[1] = biological target: GST-XIAP fusion protein, P98170
Sequence of GST-XIAP fusion protein, P98170 (P98170 whole entry, the tested form may be a part): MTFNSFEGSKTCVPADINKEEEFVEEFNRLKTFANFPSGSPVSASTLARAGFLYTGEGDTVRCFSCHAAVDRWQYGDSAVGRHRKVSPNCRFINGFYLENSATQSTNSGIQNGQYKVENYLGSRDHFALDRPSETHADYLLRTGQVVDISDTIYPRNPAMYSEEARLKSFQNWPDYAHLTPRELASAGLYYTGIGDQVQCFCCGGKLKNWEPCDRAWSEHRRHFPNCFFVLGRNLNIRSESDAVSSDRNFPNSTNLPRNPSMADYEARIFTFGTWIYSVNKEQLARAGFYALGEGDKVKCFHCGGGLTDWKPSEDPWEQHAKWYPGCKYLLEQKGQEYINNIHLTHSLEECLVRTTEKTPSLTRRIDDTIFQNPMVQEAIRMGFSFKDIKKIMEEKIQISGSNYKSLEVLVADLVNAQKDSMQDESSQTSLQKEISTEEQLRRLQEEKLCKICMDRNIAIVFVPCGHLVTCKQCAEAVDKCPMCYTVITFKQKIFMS

Sequence of GST-c-IAP-1, Q13490 (Q13490 whole entry): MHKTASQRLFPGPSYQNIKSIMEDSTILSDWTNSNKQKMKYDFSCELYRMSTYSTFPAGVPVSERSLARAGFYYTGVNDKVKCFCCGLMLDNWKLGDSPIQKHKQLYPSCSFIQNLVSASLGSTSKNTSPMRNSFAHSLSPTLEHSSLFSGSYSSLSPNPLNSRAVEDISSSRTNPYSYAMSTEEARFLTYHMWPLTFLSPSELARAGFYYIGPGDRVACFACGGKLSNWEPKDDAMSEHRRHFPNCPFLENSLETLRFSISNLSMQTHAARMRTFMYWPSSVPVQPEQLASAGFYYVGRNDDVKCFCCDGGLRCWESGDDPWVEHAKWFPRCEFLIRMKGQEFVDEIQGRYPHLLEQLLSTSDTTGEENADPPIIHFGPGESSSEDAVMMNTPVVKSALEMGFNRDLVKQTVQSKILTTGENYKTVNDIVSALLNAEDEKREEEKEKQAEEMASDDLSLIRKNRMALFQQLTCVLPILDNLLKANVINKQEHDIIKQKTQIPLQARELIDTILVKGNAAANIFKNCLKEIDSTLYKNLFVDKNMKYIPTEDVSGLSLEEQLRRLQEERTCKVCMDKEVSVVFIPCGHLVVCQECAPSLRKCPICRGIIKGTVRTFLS
Sequence of GST-c-IAP-2, Q13489 (Q13489 whole entry): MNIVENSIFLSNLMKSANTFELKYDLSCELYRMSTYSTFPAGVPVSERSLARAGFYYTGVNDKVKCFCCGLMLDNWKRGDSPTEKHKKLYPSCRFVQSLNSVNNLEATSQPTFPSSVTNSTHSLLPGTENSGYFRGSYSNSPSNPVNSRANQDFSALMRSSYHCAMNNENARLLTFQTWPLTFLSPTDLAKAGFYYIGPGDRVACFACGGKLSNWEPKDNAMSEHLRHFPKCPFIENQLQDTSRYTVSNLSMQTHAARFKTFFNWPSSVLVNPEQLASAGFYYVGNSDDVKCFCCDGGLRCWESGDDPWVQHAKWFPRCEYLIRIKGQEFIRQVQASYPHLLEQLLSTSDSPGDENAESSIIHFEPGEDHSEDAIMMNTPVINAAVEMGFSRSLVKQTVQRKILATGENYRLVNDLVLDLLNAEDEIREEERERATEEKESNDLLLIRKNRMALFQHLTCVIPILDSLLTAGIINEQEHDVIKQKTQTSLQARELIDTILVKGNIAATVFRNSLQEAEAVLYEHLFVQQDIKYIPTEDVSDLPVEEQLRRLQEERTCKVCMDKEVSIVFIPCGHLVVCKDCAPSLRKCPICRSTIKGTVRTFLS

Row | Protein | average ratio velocities (vi/vo) of DEVD-AFC hydrolysis [1] | substrate cleavage by purified caspase [1] | cleavage of purified pro-caspase-3 by active caspase-9 (immunoblot) [1] | coupled reaction: pro-caspase-3 activation by caspase-9, Ac-DEVD-AFC hydrolysis [1] | coupled reaction: pro-caspase-3 activation by caspase-9, Ac-DEVD-AFC hydrolysis (GST-c-IAP-1, Q13490) | coupled reaction: pro-caspase-3 activation by caspase-9, Ac-DEVD-AFC hydrolysis (GST-c-IAP-2, Q13489)
1 | B1 | ratios of about 1.0 | did not interfere with substrate cleavage by caspase-1, caspase-6 or caspase-8, even when added at a 50-fold molar excess |  |  |  | 
2 | B2 | ratios of about 1.0 | did not interfere with substrate cleavage by caspase-1, caspase-6 or caspase-8, even when added at a 50-fold molar excess |  |  |  | 
3 | B3 |  | did not interfere with substrate cleavage by caspase-1, caspase-6 or caspase-8, even when added at a 50-fold molar excess |  |  |  | 
4 | B4 |  |  | Addition of an equimolar concentration of XIAP relative to caspase-9 strongly inhibited cleavage of pro-caspase-3. | XIAP, c-IAP-1 and c-IAP-2 each efficiently inhibited pro-caspase-3 activation and cleavage of the tetrapeptide substrate | XIAP, c-IAP-1 and c-IAP-2 each efficiently inhibited pro-caspase-3 activation and cleavage of the tetrapeptide substrate | XIAP, c-IAP-1 and c-IAP-2 each efficiently inhibited pro-caspase-3 activation and cleavage of the tetrapeptide substrate
